# Results: the supplement of paper PMC9112550, “Optimization of the antimicrobial peptide Bac7 by deep mutational scanning” (BMC Biology, 2022)
# System: Escherichia coli TOP10
# Assay: shrunken log2 fold change of peptide-encoding DNA abundance (4.5 h post-induction vs induction); higher = less antimicrobial activity (less host growth inhibition)
# Conditions: time post-induction: 4.5 h; library: site-saturation at positions 5, 18, 19, 20
# 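Also: peptides expressed intracellularly from a pBAD plasmid library in pooled LB shake-flask culture, induced with 0.3% L-arabinose, DNA abundance read by NGS, three biological replicates, DESeq2 with apeglm shrinkage.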
row,Sequence,shrunken log2 fold change
1,RRIRFRPPRLPRPRPRPWPFPRP,-0.455
2,RRIRNRPPRLPRPRPRPNETPRP,-0.0424
3,RRIRYRPPRLPRPRPRPKGWPRP,0.465
4,RRIRVRPPRLPRPRPRPNNMPRP,-0.537
5,RRIRNRPPRLPRPRPRPRGKPRP,0.0233
6,RRIRVRPPRLPRPRPRPVRMPRP,-0.0731
7,RRIRYRPPRLPRPRPRPPPRPRP,1.5
8,RRIRVRPPRLPRPRPRPACLPRP,-0.444
9,RRIRCRPPRLPRPRPRPQMMPRP,-0.346
10,RRIRFRPPRLPRPRPRPNKCPRP,-0.273
11,RRIRERPPRLPRPRPRPGEWPRP,0.0118
12,RRIRFRPPRLPRPRPRPFMCPRP,-0.98
13,RRIRWRPPRLPRPRPRPQTTPRP,0.206
14,RRIRCRPPRLPRPRPRPFTEPRP,-0.28
15,RRIRWRPPRLPRPRPRPYHYPRP,0.0463
16,RRIRCRPPRLPRPRPRPSRCPRP,0.137
17,RRIRDRPPRLPRPRPRPGNGPRP,0.12
18,RRIRKRPPRLPRPRPRPLFRPRP,0.696
19,RRIRQRPPRLPRPRPRPEPMPRP,0.0452
20,RRIRMRPPRLPRPRPRPDQLPRP,0.391
21,RRIRWRPPRLPRPRPRPWQDPRP,-0.00695
22,RRIRNRPPRLPRPRPRPIRSPRP,-0.389
23,RRIRERPPRLPRPRPRPHFPPRP,-0.151
24,RRIRDRPPRLPRPRPRPYTDPRP,0.0446
25,RRIRTRPPRLPRPRPRPMIYPRP,-0.465

row,Sequence,shrunken log2 fold change
1,RRIRPRPPRLPRPRPRPRAKPRP,0.692
2,RRIRHRPPRLPRPRPRPFCEPRP,-0.394
3,RRIRYRPPRLPRPRPRPNKHPRP,-0.916
4,RRIRSRPPRLPRPRPRPCQCPRP,0.017
5,RRIRNRPPRLPRPRPRPIWLPRP,0.0648
6,RRIRDRPPRLPRPRPRPKMCPRP,-0.0407
7,RRIRQRPPRLPRPRPRPICHPRP,-0.14
8,RRIRMRPPRLPRPRPRPRNGPRP,0.833
9,RRIRNRPPRLPRPRPRPQSFPRP,-0.0341
10,RRIRYRPPRLPRPRPRPFLWPRP,-0.0621
11,RRIRTRPPRLPRPRPRPFDPPRP,-0.112
12,RRIRDRPPRLPRPRPRPGCKPRP,0.0398
13,RRIRRRPPRLPRPRPRPYIHPRP,-0.794
14,RRIRWRPPRLPRPRPRPRVLPRP,0.381
15,RRIRKRPPRLPRPRPRPEMDPRP,0.0842
16,RRIRVRPPRLPRPRPRPVPIPRP,-0.0742
17,RRIRFRPPRLPRPRPRPLLFPRP,-0.315
18,RRIRQRPPRLPRPRPRPYWLPRP,-0.307
19,RRIRMRPPRLPRPRPRPTETPRP,0.511
20,RRIRMRPPRLPRPRPRPWDIPRP,0.232
21,RRIRIRPPRLPRPRPRPHSGPRP,-0.00591
22,RRIRGRPPRLPRPRPRPWFFPRP,0.169
23,RRIRTRPPRLPRPRPRPPTLPRP,0.0694
24,RRIRTRPPRLPRPRPRPPCTPRP,-0.0757
25,RRIRCRPPRLPRPRPRPEIFPRP,-0.422

row,Sequence,shrunken log2 fold change
1,RRIRKRPPRLPRPRPRPPKVPRP,0.613
2,RRIRFRPPRLPRPRPRPLDTPRP,0.0445
3,RRIRERPPRLPRPRPRPRAYPRP,-0.125
4,RRIRDRPPRLPRPRPRPGGHPRP,0.188
5,RRIRFRPPRLPRPRPRPQRKPRP,0.089
6,RRIRQRPPRLPRPRPRPVVVPRP,-0.0728
7,RRIRERPPRLPRPRPRPLTAPRP,-0.286
8,RRIRGRPPRLPRPRPRPVSWPRP,1.06
9,RRIRYRPPRLPRPRPRPHDMPRP,-0.00277
10,RRIRRRPPRLPRPRPRPDTVPRP,0.0777
11,RRIRKRPPRLPRPRPRPDRVPRP,-0.00884
12,RRIRSRPPRLPRPRPRPNRPPRP,-0.0188
13,RRIRHRPPRLPRPRPRPLEHPRP,-0.00318
14,RRIRGRPPRLPRPRPRPRTDPRP,1.06
15,RRIRIRPPRLPRPRPRPPGRPRP,0.336
16,RRIRQRPPRLPRPRPRPNAFPRP,0.227
17,RRIRPRPPRLPRPRPRPIHQPRP,-0.115
18,RRIRLRPPRLPRPRPRPWSRPRP,-0.264
19,RRIRIRPPRLPRPRPRPGKLPRP,-0.0215
20,RRIRQRPPRLPRPRPRPSNYPRP,-0.0943
21,RRIRIRPPRLPRPRPRPDQDPRP,-0.162
22,RRIRGRPPRLPRPRPRPYRKPRP,0.176
23,RRIRKRPPRLPRPRPRPHDCPRP,0.108
24,RRIRLRPPRLPRPRPRPRLGPRP,0.518
25,RRIRTRPPRLPRPRPRPTEWPRP,0.0143

row,Sequence,shrunken log2 fold change
1,RRIRCRPPRLPRPRPRPEKYPRP,-0.209
2,RRIRARPPRLPRPRPRPWTAPRP,0.871
3,RRIRHRPPRLPRPRPRPKRYPRP,-0.0093
4,RRIRGRPPRLPRPRPRPNCWPRP,0.303
5,RRIRIRPPRLPRPRPRPEDMPRP,0.0397
6,RRIRQRPPRLPRPRPRPTRCPRP,0.747
7,RRIRERPPRLPRPRPRPFKKPRP,-0.0194
8,RRIRSRPPRLPRPRPRPTYRPRP,-0.195
9,RRIRLRPPRLPRPRPRPYMAPRP,-0.608
10,RRIRGRPPRLPRPRPRPQGGPRP,0.127
11,RRIRMRPPRLPRPRPRPQDSPRP,0.051
12,RRIRVRPPRLPRPRPRPHQRPRP,-0.124
13,RRIRHRPPRLPRPRPRPCIGPRP,-0.58
14,RRIRDRPPRLPRPRPRPYSIPRP,0.0125
15,RRIRMRPPRLPRPRPRPMQAPRP,3.02
16,RRIRNRPPRLPRPRPRPAEVPRP,-0.144
17,RRIRRRPPRLPRPRPRPCNHPRP,-0.011
18,RRIRVRPPRLPRPRPRPNPVPRP,-0.242
19,RRIRCRPPRLPRPRPRPKPPPRP,0.931
20,RRIRDRPPRLPRPRPRPNNRPRP,-0.178
21,RRIRRRPPRLPRPRPRPFVHPRP,0.0512
22,RRIRHRPPRLPRPRPRPKGYPRP,-0.0529
23,RRIRLRPPRLPRPRPRPIDHPRP,-0.154
24,RRIRARPPRLPRPRPRPKHWPRP,0.593
25,RRIRNRPPRLPRPRPRPVMRPRP,0.526

row,Sequence,shrunken log2 fold change
1,RRIRERPPRLPRPRPRPMDVPRP,-0.0821
2,RRIRARPPRLPRPRPRPRTFPRP,0.287
3,RRIRGRPPRLPRPRPRPLEPPRP,0.231
4,RRIRMRPPRLPRPRPRPGVKPRP,0.172
5,RRIRKRPPRLPRPRPRPELHPRP,0.0814
6,RRIRMRPPRLPRPRPRPFTWPRP,0.0653
7,RRIRDRPPRLPRPRPRPDVKPRP,-0.00748
8,RRIRQRPPRLPRPRPRPTHMPRP,0.0516
9,RRIRARPPRLPRPRPRPIKSPRP,0.226
10,RRIRYRPPRLPRPRPRPDVIPRP,-0.0708
11,RRIRVRPPRLPRPRPRPRMIPRP,0.224
12,RRIRWRPPRLPRPRPRPKWRPRP,0.428
13,RRIRRRPPRLPRPRPRPAYHPRP,0.0468
14,RRIRWRPPRLPRPRPRPGYWPRP,-0.00394
15,RRIRLRPPRLPRPRPRPGFCPRP,0.272
16,RRIRGRPPRLPRPRPRPNKKPRP,0.0152
17,RRIRERPPRLPRPRPRPLSKPRP,-0.579
18,RRIRCRPPRLPRPRPRPMETPRP,-0.0136
19,RRIRARPPRLPRPRPRPAIGPRP,0.714
20,RRIRERPPRLPRPRPRPHGGPRP,-0.0234
21,RRIRGRPPRLPRPRPRPNNYPRP,0.0781
22,RRIRWRPPRLPRPRPRPAATPRP,2.26
23,RRIRPRPPRLPRPRPRPLYFPRP,-0.602
24,RRIRYRPPRLPRPRPRPYCQPRP,-0.465
25,RRIRQRPPRLPRPRPRPSCIPRP,-0.238

row,Sequence,shrunken log2 fold change
1,RRIRNRPPRLPRPRPRPWNWPRP,-0.0655
2,RRIRKRPPRLPRPRPRPRHHPRP,0.476
3,RRIRRRPPRLPRPRPRPCETPRP,0.0583
4,RRIRHRPPRLPRPRPRPAYCPRP,0.119
5,RRIRWRPPRLPRPRPRPRKRPRP,0.726
6,RRIRMRPPRLPRPRPRPAVKPRP,0.0878
7,RRIRKRPPRLPRPRPRPEVWPRP,0.951
8,RRIRIRPPRLPRPRPRPMNEPRP,0.0707
9,RRIRHRPPRLPRPRPRPGVRPRP,0.175
10,RRIRKRPPRLPRPRPRPILSPRP,0.00626
11,RRIRDRPPRLPRPRPRPIVLPRP,-0.176
12,RRIRQRPPRLPRPRPRPGISPRP,0.0461
13,RRIRNRPPRLPRPRPRPMNLPRP,0.0249
14,RRIRYRPPRLPRPRPRPGFDPRP,-0.205
15,RRIRCRPPRLPRPRPRPWVHPRP,-0.169
16,RRIRYRPPRLPRPRPRPRETPRP,-0.0404
17,RRIRPRPPRLPRPRPRPEFPPRP,-0.00714
18,RRIRTRPPRLPRPRPRPCIMPRP,-0.2
19,RRIRMRPPRLPRPRPRPCQAPRP,0.0538
20,RRIRDRPPRLPRPRPRPVHMPRP,0.111
21,RRIRERPPRLPRPRPRPRNVPRP,-0.00139
22,RRIRERPPRLPRPRPRPLNAPRP,-0.113
23,RRIRTRPPRLPRPRPRPVGWPRP,0.753
24,RRIRYRPPRLPRPRPRPVRYPRP,-0.157
25,RRIRSRPPRLPRPRPRPQGGPRP,0.171
